Test results published in patent US20230038638A1, “COMPLEMENT FACTOR I-RELATED COMPOSITIONS AND METHODS” (published 2023).

How the values were obtained:
[1] = molecular target: T1, human C4b (human) (UniProt P0C0L5)
T1 sequence: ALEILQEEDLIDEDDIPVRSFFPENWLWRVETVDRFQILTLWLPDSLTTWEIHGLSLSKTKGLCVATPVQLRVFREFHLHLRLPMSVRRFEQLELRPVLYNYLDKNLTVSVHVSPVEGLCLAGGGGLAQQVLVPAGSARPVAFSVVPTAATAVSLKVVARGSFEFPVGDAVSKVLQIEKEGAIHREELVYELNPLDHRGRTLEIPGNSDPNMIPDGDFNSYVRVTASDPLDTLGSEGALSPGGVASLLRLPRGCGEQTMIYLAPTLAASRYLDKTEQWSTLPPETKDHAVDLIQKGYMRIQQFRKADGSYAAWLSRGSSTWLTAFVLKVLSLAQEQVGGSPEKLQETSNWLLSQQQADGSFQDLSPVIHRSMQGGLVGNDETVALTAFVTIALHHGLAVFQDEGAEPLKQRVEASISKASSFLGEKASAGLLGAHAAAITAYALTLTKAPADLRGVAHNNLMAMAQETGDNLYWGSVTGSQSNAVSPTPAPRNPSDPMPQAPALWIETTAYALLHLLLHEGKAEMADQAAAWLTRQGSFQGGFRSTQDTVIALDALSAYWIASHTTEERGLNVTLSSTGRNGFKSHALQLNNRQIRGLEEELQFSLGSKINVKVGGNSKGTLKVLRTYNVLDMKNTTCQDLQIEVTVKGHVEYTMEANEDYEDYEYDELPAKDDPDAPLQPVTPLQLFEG

[2] = molecular target: soluble human C3b (human) (UniProt P01024)

Row | Substance | C4b Screen Ref Fold (fold of CFI-HSA wild type) [1] | iC3b Screen Ref Fold (fold of CFI-HSA wild type) [2] | C4b Screen Ref Fold (fold vs CFI-HSA wild type) [1] | iC3b Screen Ref Fold (fold vs CFI-HSA wild type) [2]
1 | CFI-HSA variant E457G; WT; GGSSGG (SEQ ID NO: 6); CR1(ccp15-17) (from UniProt P17927) (enzyme) | 6.11 | 0.1 | – | –
2 | CFI-HSA variant Y20F; D425R (enzyme) | – | – | 0.42 | 1.01
3 | CFI-HSA variant S250A; D425R (enzyme) | – | – | 0.14 | 1.01
4 | CFI-HSA variant Δ(K1-P305); Y408L; N531G; E457G; E461Q; R462K; F464Y (enzyme) | – | – | 0.01 | 0.03
5 | CFI-HSA R557P (enzyme) | – | – | 3 | 0.04
6 | CFI-HSA variant E457G; N531G; WT; GGSSGG (SEQ ID NO: 6); CR1(ccp15-17) (from UniProt P17927) (enzyme) | 4.95 | 0.15 | – | –
7 | CFI-HSA R365Y (enzyme) | – | – | 0.63 | 0.74
8 | CFI-HSA variant Y408L; N531G; WT; GGSSGG (SEQ ID NO: 6); CR1(ccp15-17) (from UniProt P17927) (enzyme) | 4.17 | 0.22 | – | –
9 | CFI-HSA R365I (enzyme) | – | – | 1.16 | 0.3
10 | CFI-HSA F537G (enzyme) | – | – | 0.03 | 0.37
11 | CFI-HSA E401G (enzyme) | – | – | 0.82 | 2.1
12 | CFI-HSA Y553L (enzyme) | – | – | 0.67 | 0.93
13 | CFI-HSA K424W (enzyme) | – | – | 0.25 | 1.52
14 | CFI-HSA variant K504P (enzyme) | – | – | -0.02 | 0.01
15 | CFI-HSA variant F559L; V565I; P558S (enzyme) | 0.43 | 0.49 | – | –
16 | CFI-HSA K424A (enzyme) | – | – | 0.26 | 0.87
17 | CFI-HSA variant S507A; GGSSGG (SEQ ID NO: 6); CR1(ccp1-3) (from UniProt P17927) (enzyme) | 0.12 | 0.02 | – | –
18 | CFI-HSA variant F559L; V565I (enzyme) | 0.77 | 1.59 | – | –
19 | CFI-HSA E457G; N531G; D425R; E530Y (enzyme) | – | – | 5.37 | 0.78
20 | CFI-HSA E457G; E461Q; R557A (enzyme) | – | – | 4.5 | 1.29
21 | CFI-HSA N531G; E457G; E461Q; R557A (enzyme) | – | – | 4.46 | 0.93
22 | CFI-HSA variant E536A (enzyme) | – | – | 0.57 | 0.76
23 | CFI-HSA Y408L; N531G; R557A (enzyme) | – | – | 3.77 | 0.77
24 | CFI-HSA Y408L; E457G; E530Y (enzyme) | – | – | 2 | 1.12
25 | CFI-HSA variant I322V (enzyme) | – | – | 0.38 | 0.39
26 | CFI-HSA K424T (enzyme) | – | – | 0.03 | 0.13
27 | CFI-HSA variant S552G; F559L; P558S (enzyme) | 0.93 | 0.44 | – | –
